B1: ELF3 (parent)
chain: LSKEYWDCLEGKKSKHAPRGTHLW
B2: PLK2 (parent)
chain: YAELGQCSVFPATDAPEQFISQVT

Variants of: B1
Test: protein stability index of a GFP-peptide fusion (GPS, HEK-293T) (PSI 1-6); higher = more stable
Details: c terminus: a fixed tail appended
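Also: lentivirally expressed fusions sorted by FACS into six bins by GFP to DsRed ratio, PSI derived from sequencing read proportions per bin multiplied by bin number.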

Protein stability index, by site and new letter:
K3: I 2.29, C 2.55, Q 2.13, G 2.02, N 2.97, V 2.1, D 2.69, W 2.35, A 2.7
R19: D 3.21, Y 2.18, E 3.63, K 3.06, P 2.64, F 2.25, V 2.78, L 2.27, W 2.58
W24: T 4.05, D 4.02, I 2.94, A 3.96, K 4.11, R 3.54, E 4.33, M 3.83, H 3.98, F 3.6
C8: Q 2.95, E 2.85, P 2.04, A 3.1, Y 2.74, S 3.33, N 3.07
E10: S 2.49, Y 1.63, R 1.86, L 1.82, C 2.07, M 2.18, D 3.23, T 2.1
Y5: H 3.85, F 3.23, D 3.41, I 2.65, R 3, K 3.19, C 2.91
S14: N 2.96, Y 3.48, R 2.92, Q 2.71, I 2.68, V 2.94, M 2.24
H16: L 2.68, I 2.87, Y 3.54, N 3.2, S 2.52, A 2.72, P 2.65, G 2.88, V 2.94
E4: P 2.35, Q 1.74, C 4.2, W 1.58, A 2.23, M 2.56, L 2.06, G 1.99, H 1.89, R 1.86, V 2.53
L1: C 2.42, E 3.35, V 2.77, I 2.37, W 1.97, A 2.79, T 2.53, M 2.06, N 2.63, R 2.96, Y 2
K15: Q 2.87, M 3.18, E 2.77, L 2.16, A 2.86, W 2.93, D 3
P18: A 2.68, T 3.16, M 2.31, L 2.43, G 2.46, F 2.97, W 2.24, Y 2.73, E 3.01
H22: A 2.56, R 2.85, Y 2.51, K 2.99, G 2.68, T 2.84, L 2.12, S 3.1, M 2.37, D 3.31
S2: H 3.04, P 2.99, Y 1.91, T 2.98, N 3.13
D7: S 2.44, H 2.33, Y 2.29, T 2.76, I 2.05, W 1.89, K 2.41, F 1.83, M 2.6
K13: H 2.87, E 3.52, Y 2.82, D 3.24, F 2.74, L 2.64, G 3.08, C 2.24, T 2.37
A17: H 2.5, T 2.86, V 3.02, E 3.58, G 3.65, D 2.69, P 3.21, Q 3.4, K 2.86, W 2.4, I 3.06, C 3.33
L23: N 3.29, H 3.42, W 2.71, Q 3.59, I 2.66, V 2.93, Y 2.85, C 3.11, P 3.13
L9: Y 2.84, K 2.92, E 3.46, M 3.42, F 2.6, G 3.65
T21: N 3.1, K 3.08, P 2.57, C 2.22, H 2.66, E 3.37, R 2.78
K12: S 3.38, D 3.4, I 2.26, L 2.06, C 1.97, G 2.58, M 2.53
G11: E 3.29, P 2.89, H 2.17, W 1.82, F 2.43, M 1.94, A 2.91, D 3.19, Y 2.58, K 2.97, R 3.26, N 3.48
G20: E 2.59, Q 3.06, R 2.64, M 2.44, H 2.53, W 1.94, I 1.54, P 2.72
W6: E 3.66, M 3.56, S 3.44, D 3.93, C 3.38, A 3.6, L 3.08, F 3, K 3.65, V 3.13, Y 3.22

Variants of: B2
Test: as above
Details: c terminus: a fixed tail appended

Protein stability index, by site and new letter:
Y1: W 2.84, S 4.09, N 4.46, R 3.78, L 3.54, M 3.63, V 3.56, G 4.39, A 4.32, C 3.13, F 2.24, I 3.44, D 4.58, H 4, Q 4.7, P 4.5, T 3.99, K 4.16, E 4.52
E3: P 2.27, K 2.17, A 1.85, G 1.85, Y 1.85, D 2.19, L 1.43, S 1.82, C 2.21, H 1.93, M 1.97, W 1.66, N 2.08, R 2.09, I 1.63, V 2.31, Q 2.02, T 1.98, F 1.94
C7: K 2.23, E 3.9, D 3.04, L 1.69, M 2.23, I 1.97, F 1.78, G 2.63, H 1.91, N 1.89, A 3.2
A2: S 3.15, V 2.15, Y 2.43, K 3.47, C 1.92, Q 2.79, F 2.32, G 3.29, N 3.75, W 2.5, I 1.64, T 2.25, L 2.36, P 3.42, H 2.57, R 3.6, M 2.46, E 4.46, D 4.09
G5: S 2.14, F 2.5, I 1.72, V 2.21, K 2.02, Y 2.22, H 2.52, N 2.47, A 2.14, E 3.81, M 1.98, D 3.32, T 2.28, Q 2.53, L 1.57, P 2.46, C 2.24, R 2.02, W 3.46
L4: R 1.99, Y 2.06, I 2.5, H 3.25, M 2.11, P 3.04, G 3.51, N 3.09, C 2.43, A 2.33, T 3.05, Q 3.62, F 2.5, V 2.9, W 3.19, E 4.42, S 2.86, K 2.62, D 3.96
Q6: F 2.14, E 3.19, Y 1.95, S 2.42, A 2.18, K 2.05, D 3.3, M 1.54, V 1.94, T 2.42, W 2.89, N 2.28, G 2.04, I 1.57, H 2.02, R 1.69, P 2.26, L 2.03, C 1.61

Reference: the supplement of paper PMC10567573
